Measurements as given in patent US7101969 (TARGANTA THERAPEUTICS, dated 2006).

B1: Gal4 activation domain fused to S. aureus DnaI amino acids 150 to 313 (other)
chain: AADDICTAITNGEQVKGLYLYGPFGTGKSFILGAIANQLKSKKVRSTIIYLPEFIRTLKGGFKDGSFEKKLHRVREANILMLDDIGAEEVTPWVRDEVIGPLLHYRMVHELPTFFSSNFDYSELEHHLAMTRDGEEKTKAARIIERVKSLSTPYFLSGENFRNN
B2: GST/ORF104 fusion protein (other)
chain: MVTKEFLKTKLECSDMYAQKLIDEAQGDENRLYDLFIQKLAERHTRPAIVEY
notes: also called GST-fusion of ORF 104; not shown: GST moiety encoded by expression vector pGEX 4T-1 (Pharmacia)
B3: Gal4 activation domain fused to phage 77 ORF104 (pGAD77ORF104) (other)
chain: B2 chain
B4: bacteriophage 77 ORF 104 protein (GST removed) (other)
chain: B2 chain
notes: also called phage 77 ORF 104 gene product
B5: Gal4 activation domain fused to S. aureus DnaI amino acids 64 to 313 (other)
chain: YKDQQKHYDGHKFADCPNFVKGHVPELYVDNNRIKIRYLQCPCKIKYDEERFEAELITSHHMQRDTLNAKLKDIYMNHRDRLDVAMAADDICTAITNGEQVKGLYLYGPFGTGKSFILGAIANQLKSKKVRSTIIYLPEFIRTLKGGFKDGSFEKKLHRVREANILMLDDIGAEEVTPWVRDEVIGPLLHYRMVHELPTFFSSNFDYSELEHHLAMTRDGEEKTKAARIIERVKSLSTPYFLSGENFRNN
B6: Gal4 activation domain (GAD) fused to full-length S. aureus DnaI (pGAD dnaI) (other)
chain: MGGGQSIMKQFKSIINTSQDFEKRIEKIKKEVINDPDVKQFLEAHRAELTNAMIDEDLNVLQEYKDQQKHYDGHKFADCPNFVKGHVPELYVDNNRIKIRYLQCPCKIKYDEERFEAELITSHHMQRDTLNAKLKDIYMNHRDRLDVAMAADDICTAITNGEQVKGLYLYGPFGTGKSFILGAIANQLKSKKVRSTIIYLPEFIRTLKGGFKDGSFEKKLHRVREANILMLDDIGAEEVTPWVRDEVIGPLLHYRMVHELPTFFSSNFDYSELEHHLAMTRDGEEKTKAARIIERVKSLSTPYFLSGENFRNN
B7: S. aureus DnaI (native protein from S. aureus cell extract) (other)
chain: B6 chain
notes: also called DnaI homolog; DnaI related protein

Experiments:
[1] = target: Gal4 DNA binding domain fused to phage 77 ORF104 (pGBK77ORF104) (yeast; Staphylococcus aureus …, UniProt P04386 1-147); test: yeast two-hybrid: growth of co-transformants on THAL minus SD medium; all six sectors show growth on TL minus SD medium
[2] = target: B7; test: affinity chromatography: S. aureus extract (French pressure cell and sonication) on micro-columns with ligand cross-linked at 0, 0.1, 0.5, 1.0 and 2.0 mg/ml resin; eluate with 1% Triton X-100; 12.5% SDS-PAGE, silver stain
[3] = target: Gal4 DNA binding domain fused to full-length S. aureus DnaI (pGBK dnaI) (yeast; Staphylococcus aureus, UniProt P04386 1-147); test: yeast two-hybrid: growth of co-transformants on SD plate without Trp, Leu, His and Ade (HIS3 and ADE2 reporters); all six sectors grow on the SD plate without Trp and Leu
[4] = target: B7; test: affinity chromatography of S. aureus extract, elution with 1% Triton X-100 and 1% SDS, silver stain, MALDI-ToF identification
GST = target: T1, GST (UniProt P08515 1-218 = GST); test: affinity chromatography: S. aureus extract (French pressure cell and sonication) on micro-columns with GST cross-linked at 0 to 2.0 mg/ml resin; eluate with 1% SDS; 12.5% SDS-PAGE, silver stain
T1 construct: also called GST ligand (control)
T1 sequence (P08515 whole entry): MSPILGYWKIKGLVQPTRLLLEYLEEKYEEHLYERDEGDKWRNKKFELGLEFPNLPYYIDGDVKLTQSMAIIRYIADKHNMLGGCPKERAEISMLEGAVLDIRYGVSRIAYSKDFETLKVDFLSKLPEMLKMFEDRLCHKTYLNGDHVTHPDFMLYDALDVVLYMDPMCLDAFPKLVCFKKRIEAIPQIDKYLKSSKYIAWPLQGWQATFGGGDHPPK

## B1
[1]
  binding result: binds

## B2
[2]
  binding result: binds

## B3
[3]
  binding result: binds

## B4
[4]
  binding result: binds

## B5
[1]
  binding result: binds

## B6
[1]
  binding result: binds

## B7
GST
  binding result: no binding (tested: 2.0 mg/ml resin)
